Source: article PMC4477859

Target: wild-type CENP-A nucleosome arrays with Myc-H4 (UniProt P49450)
Test: pull-down

UniProt P49450, sequence (P49450 whole entry, looked up): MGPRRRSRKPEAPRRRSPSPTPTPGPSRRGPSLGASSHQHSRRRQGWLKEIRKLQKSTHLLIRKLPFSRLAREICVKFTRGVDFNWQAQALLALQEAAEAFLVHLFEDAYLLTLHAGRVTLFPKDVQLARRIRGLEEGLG

- CENP-C to CENP-A nucleosome ratio, low against high saturation arrays: 2 fold
Substance: CENP-C (natural protein)
